Test results as given in patent publication US20250011363A1, “OPTIMIZED SHORTENED PEPTIDE THAT BINDS TO ACETYLCHOLINE RECEPTOR, AND USE THEREOF” (SKINMED CO., LTD., priority 2021, published 2025).

B1: 5mer-436 (peptide)
peptide: RVFYK
B2: 5mer-426 (peptide)
peptide: RRVSR
B3: 5mer-416 (peptide)
peptide: KLYLR
B4: 5mer-438 (peptide)
peptide: RVRSR
B5: 5mer-147 (peptide)
peptide: RRYQK
B6: 5mer-116 (peptide)
peptide: RWRSK
B7: 5mer-120 (peptide)
peptide: RQILK
B8: 5mer-143 (peptide)
peptide: KGQQR
B9: 5mer-135 (peptide)
peptide: RRLLR
B10: 5mer-433 (peptide)
peptide: KWRCR
B11: 5mer-148 (peptide)
peptide: RSQTK
B12: 5mer-145 (peptide)
peptide: RSFSK
B13: 5mer-136 (peptide)
peptide: RRIYK
B14: 5mer-118 (peptide)
peptide: RVICK
B15: 5mer-442 (peptide)
peptide: KVRLR
B16: 5mer-423 (peptide)
peptide: RRQLK
B17: 5mer-431 (peptide)
peptide: KVQLK
B18: 5mer-125 (peptide)
peptide: RVRQK
B19: 5mer-427 (peptide)
peptide: RGLYR
B20: 5mer-425 (peptide)
peptide: RGFYR
B21: 5mer-144 (peptide)
peptide: KRFSK
B22: 5mer-141 (peptide)
peptide: RWQQR
B23: 5mer-435 (peptide)
peptide: KLRQR
B24: 5mer-421 (peptide)
peptide: RVVYK
B25: 5mer-439 (peptide)
peptide: KRVTR
B26: 5mer-447 (peptide)
peptide: KGYYK
B27: 5mer-123 (peptide)
peptide: KWIRR
B28: 5mer-417 (peptide)
peptide: KWLQK
B29: 5mer-434 (peptide)
peptide: RVLQK
B30: 5mer-140 (peptide)
peptide: KWRLR
B31: 5mer-142 (peptide)
peptide: RQYSR
B32: 5mer-134 (peptide)
peptide: RQFSK
B33: 5mer-424 (peptide)
peptide: RVYLK
B34: 5mer-440 (peptide)
peptide: RQVTK
B35: 5mer-119 (peptide)
peptide: KQIRK
B36: 5mer-430 (peptide)
peptide: KWRTK
B37: 5mer-124 (peptide)
peptide: KGFSK
B38: 5mer-131 (peptide)
peptide: KLRRR
B39: 5mer-132 (peptide)
peptide: RVRCK
B40: 5mer-422 (peptide)
peptide: KWICK
B41: 5mer-133 (peptide)
peptide: KGQRK
B42: 5mer-448 (peptide)
peptide: RQIRK
B43: 5mer-443 (peptide)
peptide: RGFTK
B44: 5mer-137 (peptide)
peptide: KGVSK
B45: 5mer-126 (peptide)
peptide: RGVTK
B46: 5mer-129 (peptide)
peptide: KSLLK
B47: 5mer-117 (peptide)
peptide: RSVYK
B48: 5mer-138 (peptide)
peptide: RQRCR
B49: 5mer-418 (peptide)
peptide: RWRTR
B50: 5mer-445 (peptide)
peptide: RLFTR
B51: 5mer-432 (peptide)
peptide: RQVRR
B52: 5mer-128 (peptide)
peptide: RGVCR
B53: 5mer-420 (peptide)
peptide: KLFCR
B54: 5mer-139 (peptide)
peptide: RLQYK
B55: 5mer-446 (peptide)
peptide: RGLQK
B56: 5mer-428 (peptide)
peptide: RQFLK
B57: 5mer-130 (peptide)
peptide: RRFRK
B58: 5mer-444 (peptide)
peptide: KQQYR
B59: 5mer-121 (peptide)
peptide: RQVTR
B60: 5mer-146 (peptide)
peptide: RWFTK
B61: 5mer-419 (peptide)
peptide: RVYTR
B62: 5mer-437 (peptide)
peptide: RVRLR
B63: 5mer-127 (peptide)
peptide: RWVTK
B64: 5mer-429 (peptide)
peptide: KSQYK
B65: 5mer-122 (peptide)
peptide: RSYQK
B66: 5mer-441 (peptide)
peptide: KLIRK
B67: 6mer-2-908 (peptide)
peptide: KYKKKR
B68: 6mer-2-909 (peptide)
peptide: RCNPRR
B69: 6mer-2-900 (peptide)
peptide: RFSAKK
B70: 6mer-2-906 (peptide)
peptide: KYCDKK
B71: 6mer-2-901 (peptide)
peptide: RYWDRK
B72: 6mer-2-905 (peptide)
peptide: RPKERR
B73: 6mer-2-903 (peptide)
peptide: KKNPKK
B74: 6mer-2-911 (peptide)
peptide: KMSGKR
B75: 6mer-2-902 (peptide)
peptide: KPDVRK
B76: 6mer-2-899 (peptide)
peptide: KKMVKR
B77: 6mer-2-904 (peptide)
peptide: KCCFKK
B78: 6mer-2-907 (peptide)
peptide: RTMNRR
B79: 6mer-2-910 (peptide)
peptide: RHEHRR

Target: acetylcholine receptor
Assay: SPR, AchR immobilized on CM5 chip, peptide at 10 µM

Compared with B1, B2 is lower in Binding affinity (RU): 60 RU for the first, 57 RU for the second.

Compared with B3, B4 is higher in Binding affinity (RU): 67 RU for the first, 76 RU for the second.

First: B5
Second: B6
The Binding affinity (RU) of the first is higher: 66 RU for the first, 64 RU for the second.

Going from B7 to B8, the Binding affinity (RU) falls from 68 RU to 64 RU.

Compared with B9, B10 is higher in Binding affinity (RU): 64 RU for the first, 73 RU for the second.

First: B11
Second: B12
The Binding affinity (RU) of the first is lower: 50 RU for the first, 62 RU for the second.

First: B13
Second: B14
The Binding affinity (RU) of the first is lower: 75 RU for the first, 87 RU for the second.

Going from B15 to B16, the Binding affinity (RU) falls from 61 RU to 60 RU.

First: B17
Second: B18
The Binding affinity (RU) of the first is higher: 81 RU for the first, 67 RU for the second.

Compared with B19, B20 is lower in Binding affinity (RU): 87 RU for the first, 80 RU for the second.

Going from B21 to B22, the Binding affinity (RU) falls from 58 RU to 50 RU.

First: B23
Second: B24
The Binding affinity (RU) of the first is higher: 69 RU for the first, 68 RU for the second.

First: B25
Second: B26
The Binding affinity (RU) of the first is lower: 65 RU for the first, 76 RU for the second.

First: B27
Second: B28
The Binding affinity (RU) of the first is lower: 53 RU for the first, 65 RU for the second.

Compared with B29, B30 is lower in Binding affinity (RU): 74 RU for the first, 69 RU for the second.

First: B31
Second: B32
The Binding affinity (RU) of the first is lower: 52 RU for the first, 61 RU for the second.

Compared with B33, B34 is lower in Binding affinity (RU): 87 RU for the first, 57 RU for the second.

Compared with B35, B36 is higher in Binding affinity (RU): 60 RU for the first, 80 RU for the second.

Compared with B37, B38 is higher in Binding affinity (RU): 58 RU for the first, 72 RU for the second.

Compared with B39, B40 is higher in Binding affinity (RU): 83 RU for the first, 87 RU for the second.

First: B41
Second: B42
The Binding affinity (RU) of the first is higher: 84 RU for the first, 74 RU for the second.

Compared with B43, B44 is lower in Binding affinity (RU): 80 RU for the first, 77 RU for the second.

Going from B45 to B46, the Binding affinity (RU) rises from 61 RU to 63 RU.

Compared with B47, B48 is higher in Binding affinity (RU): 69 RU for the first, 71 RU for the second.

Compared with B49, B50 is higher in Binding affinity (RU): 53 RU for the first, 77 RU for the second.

Going from B51 to B52, the Binding affinity (RU) rises from 52 RU to 56 RU.

First: B53
Second: B54
The Binding affinity (RU) of the first is higher: 84 RU for the first, 73 RU for the second.

Going from B55 to B56, the Binding affinity (RU) rises from 53 RU to 86 RU.

Compared with B57, B58 is lower in Binding affinity (RU): 80 RU for the first, 65 RU for the second.

First: B59
Second: B60
The Binding affinity (RU) of the first is higher: 73 RU for the first, 52 RU for the second.

First: B61
Second: B62
The Binding affinity (RU) of the first is higher: 67 RU for the first, 50 RU for the second.

Going from B63 to B64, the Binding affinity (RU) falls from 86 RU to 63 RU.

Compared with B65, B66 is lower in Binding affinity (RU): 78 RU for the first, 53 RU for the second.

Target: acetylcholine receptor
Assay: SPR, receptor immobilised on chip, peptide at 10 uM

Going from B67 to B68, the Binding affinity (RU) rises from 33 RU to 42 RU.

First: B69
Second: B70
The Binding affinity (RU) of the first is lower: 11 RU for the first, 40 RU for the second.

Compared with B71, B72 is lower in Binding affinity (RU): 34 RU for the first, 26 RU for the second.

Compared with B73, B74 is lower in Binding affinity (RU): 40 RU for the first, 21 RU for the second.

First: B75
Second: B76
The Binding affinity (RU) of the first is higher: 26 RU for the first, 13 RU for the second.

Compared with B77, B78 is lower in Binding affinity (RU): 30 RU for the first, 25 RU for the second.

B79 was tested, and the Binding affinity (RU) was 21 RU.
